From US20250340857A1 (SEISMIC THERAPEUTIC, published 2025)
Positions count from the first letter of the chain named.

B1: FP179 (Fc fusion)
chain 1: TALGRRKAEDRIKETLWADGVKIDEKDFEHIKSSHEDYFAVEYGKGSGYYDVNKKMDSEDSALCVGAVVTNMFHWWVDQNRENIEKFKKQDPENNGVMKFEGVKEATVDELNEFYRDNRDNYADQSRFFDLIKKHFGNKALNPEELFELYFNGFYYGSSHRYIEDNEPAQNNLFSKVLENNKLLNPERSYGIDGFSNNVINALKSHKVLGLVYTTPLRYRHIISMWGADIDQDGKVKAIYVTDSDDREITFNDNSKRRIGMIRYDVLVDDNGNIRFTGKGATHKEEGAIYAGLYSLSRGDEVWEDYFKKYPEVQENLDKTHTCPPCPAPEAAGAPSVFLFPPKPKDTLMISRTPEVTCVVVDVSHEDPEVKFNWYVDGVEVHNAKTKPREEQQNSTYRVVSVLTVLHQDWLNGKEYKCKVSNKALKAPIEKTISKAKGQPREPQVYTLPPSRDELTKNQVSLWCLVKGFYPSDIAVEWESNGQPENNYKTTPPVLDSDGSFFLYSKLTVDKSRWQQGNVFSCSVMHEALHNHYTQKSLSLSPG
chain 2: DKTHTCPPCPAPEAAGAPSVFLFPPKPKDTLMISRTPEVTCVVVDVSHEDPEVKFNWYVDGVEVHNAKTKPREEQQNSTYRVVSVLTVLHQDWLNGKEYKCKVSNKALKAPIEKTISKAKGQPREPQVYTLPPSRDELTKNQVSLSCAVKGFYPSDIAVEWESNGQPENNYKTTPPVLDSDGSFFLVSKLTVDKSRWQQGNVFSCSVMHEALHNHYTQKSLSLSPG
B2: FP191 (Fc fusion)
chain 1: DKTHTCPPCPAPEAAGAPSVFLFPPKPKDTLMISRTPEVTCVVVDVSHEDPEVKFNWYVDGVEVHNAKTKPREEQQNSTYRVVSVLTVLHQDWLNGKEYKCKVSNKALKAPIEKTISKAKGQPREPQVYTLPPSRDELTKNQVSLWCLVKGFYPSDIAVEWESNGQPENNYKTTPPVLDSDGSFFLYSKLTVDKSRWQQGNVFSCSVMHEALHNHYTQKSLSLSPGAPAPAPAPAPAPAPTALGRRKAEDRIKETLWADGVKIDEKDFEHIKSSHEDYFAVEYGKGSGYYDVNKKMDSEDSALCVGAVVTNMFHWWVDQNRENIEKFKKQDPENNGVMKFEGVKEATVDELNEFYRDNRDNYADQSRFFDLIKKHFGNKALNPEELFELYFNGFYYGSSHRYIEDNEPAQNNLFSKVLENNKLLNPERSYGIDGFSNNVINALKSHKVLGLVYTTPLRYRHIISMWGADIDQDGKVKAIYVTDSDDREITFNDNSKRRIGMIRYDVLVDDNGNIRFTGKGATHKEEGAIYAGLYSLSRGDEVWEDYFKKYPEVQENL
chain 2: B1 chain 2
B3: FP183 (Fc fusion)
chain 1: DKTHTCPPCPAPEAAGAPSVFLFPPKPKDTLMISRTPEVTCVVVDVSHEDPEVKFNWYVDGVEVHNAKTKPREEQQNSTYRVVSVLTVLHQDWLNGKEYKCKVSNKALKAPIEKTISKAKGQPREPQVYTLPPSRDELTKNQVSLWCLVKGFYPSDIAVEWESNGQPENNYKTTPPVLDSDGSFFLYSKLTVDKSRWQQGNVFSCSVMHEALHNHYTQKSLSLSPGAEEEKAEEEKAEEEKTALGRRKAEDRIKETLWADGVKIDEKDFEHIKSSHEDYFAVEYGKGSGYYDVNKKMDSEDSALCVGAVVTNMFHWWVDQNRENIEKFKKQDPENNGVMKFEGVKEATVDELNEFYRDNRDNYADQSRFFDLIKKHFGNKALNPEELFELYFNGFYYGSSHRYIEDNEPAQNNLFSKVLENNKLLNPERSYGIDGFSNNVINALKSHKVLGLVYTTPLRYRHIISMWGADIDQDGKVKAIYVTDSDDREITFNDNSKRRIGMIRYDVLVDDNGNIRFTGKGATHKEEGAIYAGLYSLSRGDEVWEDYFKKYPEVQENL
chain 2: B1 chain 2
B4: FP184 (Fc fusion)
chain 1: DKTHTCPPCPAPEAAGAPSVFLFPPKPKDTLMISRTPEVTCVVVDVSHEDPEVKFNWYVDGVEVHNAKTKPREEQQNSTYRVVSVLTVLHQDWLNGKEYKCKVSNKALKAPIEKTISKAKGQPREPQVYTLPPSRDELTKNQVSLWCLVKGFYPSDIAVEWESNGQPENNYKTTPPVLDSDGSFFLYSKLTVDKSRWQQGNVFSCSVMHEALHNHYTQKSLSLSPGEAAAKEAAAKEAAAKTALGRRKAEDRIKETLWADGVKIDEKDFEHIKSSHEDYFAVEYGKGSGYYDVNKKMDSEDSALCVGAVVTNMFHWWVDQNRENIEKFKKQDPENNGVMKFEGVKEATVDELNEFYRDNRDNYADQSRFFDLIKKHFGNKALNPEELFELYFNGFYYGSSHRYIEDNEPAQNNLFSKVLENNKLLNPERSYGIDGFSNNVINALKSHKVLGLVYTTPLRYRHIISMWGADIDQDGKVKAIYVTDSDDREITFNDNSKRRIGMIRYDVLVDDNGNIRFTGKGATHKEEGAIYAGLYSLSRGDEVWEDYFKKYPEVQENL
chain 2: B1 chain 2
B5: FP16 (Fc fusion)
chain: DKTHTCPPCPAPEAAGAPSVFLFPPKPKDTLMISRTPEVTCVVVDVSHEDPEVKFNWYVDGVEVHNAKTKPREEQQNSTYRVVSVLTVLHQDWLNGKEYKCKVSNKALKAPIEKTISKAKGQPREPQVYTLPPSRDELTKNQVSLTCLVKGFYPSDIAVEWESNGQPENNYKTTPPVLDSDGSFFLYSKLTVDKSRWQQGNVFSCSVMHEALHNHYTQKSLSLSPGGGGSGGGGSGGGGSTALGRRKAEDRIKETLWADGVKIDEKDFEHIKSSHEDYFAVEYGKGSGYYDVNKKMDSEDTALCVGAVVTNMFHWWVDQNRENIEKFKKQDPENNGVMKFNGVKEATVDELNHFYKEYQSNKYADQSRFFDLIKKHFGNKALNPEELFELYFNGFYYGSSHRYIEDNKPAQNNLFSKVLENNKLLNPERSYGIDGFSNNVINALKSHKVLGLVHTTPLRYRHIISMWGADIDQDGKVKAIYVTDSDDREITFNDNSKRRIGMIRYDVLVDDNGNIRFTGKGATHKEEGAIYAGLYSLSRGDEVWEDYFKKYPEVQENL
B6: FP13 (Fc fusion)
chain: DKTHTCPPCPAPEAAGAPSVFLFPPKPKDTLMISRTPEVTCVVVDVSHEDPEVKFNWYVDGVEVHNAKTKPREEQQNSTYRVVSVLTVLHQDWLNGKEYKCKVSNKALKAPIEKTISKAKGQPREPQVYTLPPSRDELTKNQVSLTCLVKGFYPSDIAVEWESNGQPENNYKTTPPVLDSDGSFFLYSKLTVDKSRWQQGNVFSCSVMHEALHNHYTQKSLSLSPGGGGSGGGGSGGGGSTALGRRKAEDRIKETLWADGVKIDEKDFEHIKSSHEDYFAVEYGKGSGYYDVNKKMDSEDSALCVGAVVTNMFHWWVDQNRENIEKFKKQDPENNGVMKFEGVKEATVDELNHFYRDNRDNYADQSRFFDLIKKHFGNKALNPEELFELYFNGFYYGSSHRYIEDNEPAQNNLFSKVLENNKLLNPERSYGIDGFSNNVINALKSHKVLGLVHTTPLRYRHIISMWGADIDQDGKVKAIYVTDSDDREITFNDNSKRRIGMIRYDVLVDDNGNIRFTGKGATHKEEGAIYAGLYSLSRGDEVWEDYFKKYPEVQENL
B7: FP19 (Fc fusion)
chain: B6 chain with H453Y

How the values were obtained:
[1] = target: Human IgE antibody (human); test: cell-based or functional assay
[2] = target: IgG1; test: cell-based or functional assay

Row | Binder | EC50 CE-SDS IgE [1] [nM] | EC50 MSD IgE [1] [nM] | EC50 CE-SDS IgG1 [2] [nM]
1 | B1 | 6.64 | 0.424 | –
2 | B2 | 1.51 | 0.555 | –
3 | B3 | 7.63 | 0.548 | –
4 | B4 | – | 0.475 | –
5 | B5 | 47 | – | 8720
6 | B6 | 31.9 | – | 21300
7 | B7 | 21.8 | 1.2 | 7240
